Residue numbers refer to the chain shown, from its start. Blank lines part the entries; values can stand above or below the binder they belong to.
Columns and labels:
[1] = molecular target: T1, Recombinant Human DLL4 (delta-like protein 4) (human, UniProt Q9NR61 27-524); experiment: SPR, Fab on recombinant human DLL4; standard deviation in parentheses
T1 construct: Bought (R&D Systems Cat#1506-D4/CF); also called rHuman DLL4

[2] = molecular target: T2, Recombinant Human DLL4 (R&D Systems, Cat#1506-D4/CF) (human, UniProt Q9NR61 27-529); experiment: Surface Plasmon Resonance, recombinant human DLL4
T2 construct: Bought protein; also called rHuman DLL4; delta-like protein 4

[3] = molecular target: T3, rHuman P-Cadherin/Fc Chimera, CF (R&D Systems Cat#861-PC) (human, UniProt P22223 108-654); experiment: MSD ECL multi-spot plate; Fab 392.5 nM; blank spot 338
T3 construct: Fc part of the bought chimera not given

[4] = molecular target: T4, rHuman IGF-1 sR, (IGF-1 sR), CF (R&D Systems Cat#391-GR) (human, UniProt P08069 31-932); experiment: as above
T4 construct: also called insulin-like growth factor-1 soluble receptor; IGF-R1

[5] = molecular target: T5, rHuman Erythropoietin R/Fc Chimera, CF (R&D Systems Cat#963-ER) (human, UniProt P19235 25-250); experiment: as above
T5 construct: also called EPO R/Fc; Epo R; Fc part of the bought chimera not given
T5 sequence: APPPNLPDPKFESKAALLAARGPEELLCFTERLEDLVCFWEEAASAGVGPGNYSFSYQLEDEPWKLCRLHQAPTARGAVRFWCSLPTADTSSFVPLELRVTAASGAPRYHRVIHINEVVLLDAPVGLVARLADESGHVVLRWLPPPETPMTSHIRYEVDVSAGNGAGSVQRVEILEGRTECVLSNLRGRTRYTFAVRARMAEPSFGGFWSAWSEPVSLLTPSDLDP

[6] = molecular target: T6, rHuman ErbB2/Fc Chimera, CF (R&D Systems Cat#1129-ER) (human, UniProt P04626 23-652); experiment: as above
T6 construct: also called HER2/neu; human epidermal growth factor 2 receptor; Fc part of the bought chimera not given

[7] = molecular target: T7, rHuman CD44/Fc Chimera, CF (R&D Systems Cat#3660-CD) (human, UniProt P16070 21-220); experiment: as above
T7 construct: Fc part of the bought chimera not given

[8] = molecular target: T8, rHuman HGF R/c-MET/Fc Chimera, CF (R&D Systems Cat#358-MT/CF) (human, UniProt P08581 25-932); experiment: as above
T8 construct: also called HGF R/Fc; hepatocyte growth factor receptor; Fc part of the bought chimera not given

[9] = molecular target: T3, rHuman P-Cadherin/Fc Chimera, CF (R&D …); experiment: MSD ECL multi-spot plate; Fab 98.1 nM; blank spot 210
[10] = molecular target: T4, rHuman IGF-1 sR, (IGF-1 sR), CF (R&D …); experiment: as above
[11] = molecular target: T5, rHuman Erythropoietin R/Fc Chimera, CF …; experiment: as above
[12] = molecular target: T6, rHuman ErbB2/Fc Chimera, CF (R&D …); experiment: as above
[13] = molecular target: T7, rHuman CD44/Fc Chimera, CF (R&D Systems …); experiment: as above
[14] = molecular target: T8, rHuman HGF R/c-MET/Fc Chimera, CF (R&D …); experiment: as above
[15] = molecular target: T3, rHuman P-Cadherin/Fc Chimera, CF (R&D …); experiment: MSD ECL multi-spot plate; Fab 24.5 nM; blank spot 149
[16] = molecular target: T4, rHuman IGF-1 sR, (IGF-1 sR), CF (R&D …); experiment: as above
[17] = molecular target: T5, rHuman Erythropoietin R/Fc Chimera, CF …; experiment: as above
[18] = molecular target: T6, rHuman ErbB2/Fc Chimera, CF (R&D …); experiment: as above
[19] = molecular target: T7, rHuman CD44/Fc Chimera, CF (R&D Systems …); experiment: as above
[20] = molecular target: T8, rHuman HGF R/c-MET/Fc Chimera, CF (R&D …); experiment: as above
[21] = molecular target: T3, rHuman P-Cadherin/Fc Chimera, CF (R&D …); experiment: MSD ECL multi-spot plate; Fab 1570 nM; blank spot 866
[22] = molecular target: T4, rHuman IGF-1 sR, (IGF-1 sR), CF (R&D …); experiment: as above
[23] = molecular target: T5, rHuman Erythropoietin R/Fc Chimera, CF …; experiment: as above
[24] = molecular target: T6, rHuman ErbB2/Fc Chimera, CF (R&D …); experiment: as above
[25] = molecular target: T7, rHuman CD44/Fc Chimera, CF (R&D Systems …); experiment: as above
[26] = molecular target: T8, rHuman HGF R/c-MET/Fc Chimera, CF (R&D …); experiment: as above

B1: Fab VH1-46_IGHD6-6*01_IGHJ1*01 & L6_IGKJ1*01 (Fab, V domains shown)
VH: QVQLVQSGAEVKKPGASVKVSCKASGYTFTSYYMHWVRQAPGQGLEWMGIINPSGGSTSYAQKFQGRVTMTRDTSTSTVYMELSSLRSEDTAVYYCAREEYSSSSAEYFQHWGQGTLVTVSS
VL: not shown
notes: Germline Fab from E. coli; VH joined to CH1 with Flag/His tags (Plasmid A), VL to kappa constant region (Plasmid C)
- Kd [1]: 730 nM
- koff [1]: 0.101 s⁻¹
- kon [1]: 163000 M⁻¹ s⁻¹

B2: Fab VH1-46_IGHD6-6*01_IGHJ1*01_S102A_S103P_S104F & L6_IGKJ1*01 (Fab, V domains shown)
VH: B1 VH with S102A, S103P, S104F
VL: not shown
notes: Modified anti-DLL4 Fab; kappa Plasmid C)
- Kd [1]: 122 nM
- koff [1]: 0.0492 s⁻¹
- kon [1]: 405000 M⁻¹ s⁻¹

B3: Fab VH1-46_IGHD6-6*01>1_IGHJ1*01_S104F & L6_IGKJ1*01 (Fab, V domains shown)
VH: B1 VH with S104F
VL: not shown
notes: as for B2
- Kd [1]: 380 nM
- koff [1]: 0.19 s⁻¹
- kon [1]: 500000 M⁻¹ s⁻¹

B4: Fab VH1-46_IGHD6-6*01_IGHJ1*01_S102A_S103P_S104F & L6_IGKJ1*01_S31K (Fab, V domains shown)
VH: B1 VH with S102A, S103P, S104F
VL: EIVLTQSPATLSLSPGERATLSCRASQSVSKYLAWYQQKPGQAPRLLIYDASNRATGIPARFSGSGSGTDFTLTISSLEPEDFAVYYCQQRSNWPPWTFGQGTKVEIKR
notes: Modified anti-DLL4 Fab
- Kd [1]: 112 nM
- koff [1]: 0.0392 s⁻¹
- kon [1]: 350000 M⁻¹ s⁻¹

B5: Fab VH1-46_IGHD6-6*01>1_IGHJ1*01_S104F & L6_IGKJ1*01 (Fab, V domains shown)
VH: B1 VH with S104F
VL: not shown
notes: Modified Fab
- Kd [2]: 388 nM

B10: Fab VH1-46_IGHD3-10*01_IGHJ4*01 & O1_IGKJ1*01 (Fab, V domains shown)
VH: QVQLVQSGAEVKKPGASVKVSCKASGYTFTSYYMHWVRQAPGQGLEWMGIINPSGGSTSYAQKFQGRVTMTRDTSTSTVYMELSSLRSEDTAVYYCAREYYYGSGSYYNDYFDYWGQGTLVTVSS
VL: DIVMTQTPLSLPVTPGEPASISCRSSQSLLDSDDGNTYLDWYLQKPGQSPQLLIYTLSYRASGVPDRFSGSGSGTDFTLKISRVEAEDVGVYYCMQRIEFPSWTFGQGTKVEIK
notes: It was expressed in E. coli as a Fab; The heavy chain carries CH1 from Plasmid A with Flag and His tags; The light chain carries the kappa constant region from Plasmid C
- ECL signal [3]: 459 ECL signal
- ECL signal [4]: 466 ECL signal
- ECL signal [5]: 5860 ECL signal
- ECL signal [6]: 539 ECL signal
- ECL signal [7]: 498 ECL signal
- ECL signal [8]: 581 ECL signal
- ECL signal [9]: 347 ECL signal
- ECL signal [10]: 309 ECL signal
- ECL signal [11]: 5630 ECL signal
- ECL signal [12]: 247 ECL signal
- ECL signal [13]: 265 ECL signal
- ECL signal [14]: 335 ECL signal
- ECL signal [15]: 257 ECL signal
- ECL signal [16]: 239 ECL signal
- ECL signal [17]: 4530 ECL signal
- ECL signal [18]: 241 ECL signal
- ECL signal [19]: 267 ECL signal
- ECL signal [20]: 211 ECL signal
- ECL signal [21]: 1790 ECL signal
- ECL signal [22]: 1430 ECL signal
- ECL signal [23]: 6120 ECL signal
- ECL signal [24]: 1260 ECL signal
- ECL signal [25]: 1380 ECL signal
- ECL signal [26]: 1640 ECL signal

B11: Fab VH1-46_IGHD3-10*01_IGHJ4*01 & L12_IGKJ1*01 (Fab, V domains shown)
VH: B10 VH
VL: not shown
- Kd [1]: 500 nM
- koff [1]: 0.29 s⁻¹
- kon [1]: 500000 M⁻¹ s⁻¹

More lines, now with the values ahead:

- Kd [1]: 70.6 nM
- koff [1]: 0.03 s⁻¹
- kon [1]: 425000 M⁻¹ s⁻¹
B6: Fab VH1-46_IGHD6-6*01_IGHJ1*01_S102A_S103P_S104F_H111F & L6_IGKJ1*01 (Fab, V domains shown)
VH: B1 VH with S102A, S103P, S104F, H111F
VL: not shown
notes: as for B2

- Kd [2]: 70.6 nM
B7: Fab VH1-46_IGHD6-6*01_IGHJ1*01_S102A_S103P_S104F_H111F & L6_IGKJ1*01 (Fab, V domains shown)
VH: B1 VH with S102A, S103P, S104F, H111F
VL: not shown
notes: Modified Fab

- Kd [1]: 93.1 nM
- koff [1]: 0.0317 s⁻¹
- kon [1]: 340000 M⁻¹ s⁻¹
B8: Fab VH1-46_IGHD6-6*01_IGHJ1*01_S102A_S103P_S104F_H111Y & L6_IGKJ1*01 (Fab, V domains shown)
VH: B1 VH with S102A, S103P, S104F, H111Y
VL: not shown
notes: as for B2

- Kd [1]: 4800 nM
B9: Fab VH5-51_IGHD5-18*01>3_IGHJ4*01 & V3-4_IGLJ1*01 (Fab, V domains shown)
VH: EVQLVQSGAEVKKPGESLKISCKGSGYSFTSYWIGWVRQMPGKGLEWMGIIYPGDSDTRYSPSFQGQVTISADKSISTAYLQWSSLKASDTAMYYCARRGYSYGYDYFDYWGQGTLVTVSS
VL: QTVVTQEPSFSVSPGGTVTLTCGLSSGSVSTSYYPSWYQQTPGQAPRTLIYSTNTRSSGVPDRFSGSILGNKAALTITGAQADDESDYYCVLYMGSGISYVFGTGTKVTVL
notes: Germline Fab from E. coli; VH joined to CH1 with Flag/His tags (Plasmid A), VL to lambda constant region (Plasmid E)

- Kd [1]: 38000 nM
B12: Fab VH6-1_IGHD3-3*01_IGHJ4*01 & V4-3_IGLJ4*01 (Fab, V domains shown)
VH: QVQLQQSGPGLVKPSQTLSLTCAISGDSVSSNSAAWNWIRQSPSRGLEWLGRTYYRSKWYNDYAVSVKSRITINPDTSKNQFSLQLNSVTPEDTAVYYCAREYYDFWSGYYTDYFDYWGQGTLVTVSS
VL: QPVLTQPTSLSASPGASARLTCTLRSGINLGSYRIFWYQQKPESPPRYLLSYYSDSSKHQGSGVPSRFSGSKDASSNAGILVISGLQSEDEADYYCMIWHSSASFVFGGGTQLIIL
notes: as for B9

- Kd [2]: 38000 nM
B13: Fab VH6-1_IGHD3-3*01_IGHJ4*01 & V4-3_IGLJ4*01 (Fab, V domains shown)
VH: B12 VH
VL: B12 VL
notes: Fab from E. coli; VH joined to CH1 with Flag and His tags (Plasmid A), VL to lambda CL (Plasmid E)

— patent US20120058906A1 (published 2012)
